Laboratory results as given in patent US20150259425A1 (AbbVie / Abbott, published 2015).

B1: enavatuzumab (antibody, human IgG1, kappa)
heavy: not shown
light: DIQMTQSPSSLSASVGDRVTITCRASQSVSTSSYSYMHWYQQKPGKAPKLLIKYASNLESGVPSRFSGSGSGTDFTLTISSLQPEDFATYYCQHSWEIPYTFGGGTKVEIKRTVAAPSVFIFPPSDEQLKSGTASVVCLLNNFYPREAKVQWKVDNALQSGNSQESVTEQDSKDSTYSLSSTLTLSKADYEKHKVYACEVTHQGLSSPVTKSFNRGEC
modifications: N-linked glycans; the share of non-fucosylated glycoforms differs between batches
notes: Humanized IgG1 to TweakR, made in NS0 cells; Batches differ only in glycoforms; also called PDL192
B2: daclizumab (antibody, human IgG1, kappa)
heavy: not shown
light: DIQMTQSPSTLSASVGDRVTITCSASSSISYMHWYQQKPGKAPKLLIYTTSNLASGVPARFSGSGSGTEFTLTISSLQPDDFATYYCHQRSTYPLTFGSGTKVEVKRTVAAPSVFIFPPSDEQLKSGTASVVCLLNNFYPREAKVQWKVDNALQSGNSQESVTEQDSKDSTYSLSSTLTLSKADYEKHKVYACEVTHQGLSSPVTKSFNR
modifications: N-linked glycans; the share of non-fucosylated glycoforms differs between batches
notes: Humanized IgG1 to CD25, made in NS0 cells; the entries may be incomplete; also called DAC HYP
B3: PDL241 (antibody, human IgG1, kappa)
heavy: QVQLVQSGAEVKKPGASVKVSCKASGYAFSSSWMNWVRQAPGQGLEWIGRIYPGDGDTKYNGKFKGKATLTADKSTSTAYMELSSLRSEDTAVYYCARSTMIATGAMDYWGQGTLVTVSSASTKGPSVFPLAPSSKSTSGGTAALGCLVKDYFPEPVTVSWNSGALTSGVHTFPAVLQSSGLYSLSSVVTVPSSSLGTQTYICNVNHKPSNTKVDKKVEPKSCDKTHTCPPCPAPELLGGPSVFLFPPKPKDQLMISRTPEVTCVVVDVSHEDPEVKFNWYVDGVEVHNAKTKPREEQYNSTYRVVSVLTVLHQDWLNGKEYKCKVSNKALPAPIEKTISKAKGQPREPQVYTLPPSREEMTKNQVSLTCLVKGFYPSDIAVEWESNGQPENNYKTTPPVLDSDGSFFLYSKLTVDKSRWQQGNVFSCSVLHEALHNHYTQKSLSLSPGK
light: DIQMTQSPSSLSASVGDRVTITCKASQDVSTAVAWYQQKPGKAPKLLIYSASYRYTGVPDRFTGSGSGTDFTLTISSLQPEDFATYYCQQHYSTPPYTFGGGTKVEIKRTVAAPSVFIFPPSDEQLKSGTASVVCLLNNFYPREAKVQWKVDNALQSGNSQESVTEQDSKDSTYSLSSTLTLSKADYEKHKVYACEVTHQGLSSPVTKSFNRGEC
modifications: N-linked glycans; the share of non-fucosylated glycoforms differs between batches
notes: Humanized IgG1 to CS1, made in NS0 cells; Batches differ only in glycoforms
B4: elotuzumab (antibody, human IgG1, kappa)
heavy: not shown
light: DIQMTQSPSSLSASVGDRVTITCKASQDVGIAVAWYQQKPGKVPKLLIYWASTRHTGVPDRFSGSGSGTDFTLTISSLQPEDVATYYCQQYSSYPYTFGQGTKVEIKRTVAAPSVFIFPPSDEQLKSGTASVVCLLNNFYPREAKVQWKVDNALQSGNSQESVTEQDSKDSTYSLSSTLTLSKADYEKHKVYACEVTHQGLSSPVTKSFNRGEC
modifications: N-linked glycans; the share of non-fucosylated glycoforms differs between batches (control vs high glycine medium)
notes: IgG1 made in NS0 cells; also called HuLuc63; HuLuc 63

Assays:
recombinant human CD16a [1] = molecular target: T1, recombinant human CD16a (human, UniProt P08637 17-208, limits assumed); assay: AlphaScreen, recombinant human CD16a; high glycine batch against control batch
T1 construct: Recombinant human CD16a solution used in the AlphaScreen assay; also called CD16a receptor; human CD16a receptor
Experimental: (§1) A CD16a binding assay was performed using AlphaScreen (PerkinElmer) method to assess the binding potency of the antibody Fc region of four different antibodies to human CD16a receptor. The antibody solution was first mixed with a recombinant human CD16a solution and assay buffer, and then Alphascreen donor beads and antibody acceptor beads were added. The mixture was incubated in a light protected location for 4 hours at room temperature and the fluorescent signal was detected using a plate reader with laser excitation at 680 nm and light emission 520-620 nm. The binding potency relative to the antibody reference cultured in a basal medium without excess glycine was reported.

recombinant human CD16a [2] = molecular target: T1, recombinant human CD16a; assay: AlphaScreen, recombinant human CD16a in solution; batch: 1 kL control (GMP)
Experimental: as §1

recombinant human CD16a [3] = molecular target: T1, recombinant human CD16a; assay: AlphaScreen, recombinant human CD16a in solution; batch: 1 kL control medium
Experimental: as §1

recombinant human CD16a [4] = molecular target: T1, recombinant human CD16a; assay: AlphaScreen, recombinant human CD16a in solution; batch: 100 L control medium
Experimental: as §1

recombinant human CD16a [5] = molecular target: T1, recombinant human CD16a; assay: AlphaScreen, recombinant human CD16a in solution; batch: 50 L with extra glycine
Experimental: as §1

recombinant human CD16a [6] = molecular target: T1, recombinant human CD16a; assay: AlphaScreen, recombinant human CD16a in solution; dose response study, batch: 2 L control (2 mM glycine)
Experimental: as §1

recombinant human CD16a [7] = molecular target: T1, recombinant human CD16a; assay: AlphaScreen, recombinant human CD16a in solution; dose response study, batch: 2 L with extra 5 mM glycine
Experimental: as §1

recombinant human CD16a [8] = molecular target: T1, recombinant human CD16a; assay: AlphaScreen, recombinant human CD16a in solution; dose response study, batch: 2 L with extra 15 mM glycine
Experimental: as §1

recombinant human CD16a [9] = molecular target: T1, recombinant human CD16a; assay: AlphaScreen, recombinant human CD16a in solution; dose response study, batch: 2 L with extra 30 mM glycine
Experimental: as §1

recombinant human CD16a [10] = molecular target: T1, recombinant human CD16a; assay: AlphaScreen, recombinant human CD16a in solution; batch: 2 L control medium
Experimental: as §1

recombinant human CD16a [11] = molecular target: T1, recombinant human CD16a; assay: AlphaScreen, recombinant human CD16a in solution; batch: 2 L with extra glycine
Experimental: as §1

recombinant human CD16a [12] = molecular target: T1, recombinant human CD16a; assay: AlphaScreen, recombinant human CD16a in solution; batch: 250 L control medium
Experimental: as §1

recombinant human CD16a [13] = molecular target: T1, recombinant human CD16a; assay: AlphaScreen, recombinant human CD16a in solution; batch: 100 L with extra glycine
Experimental: as §1

recombinant human CD16a [14] = molecular target: T1, recombinant human CD16a; assay: AlphaScreen, recombinant human CD16a in solution; batch: 1 kL with extra glycine
Experimental: as §1

| Binder | increase in binding affinity relative to the control antibody (basal medium, 2 mM glycine) (recombinant human CD16a [1]) | CD16a Binding Relative to Reference (recombinant human CD16a [2]) | CD16a Binding Relative to Reference (recombinant human CD16a [3]) | CD16a Binding Relative to Reference (recombinant human CD16a [4]) | CD16a Binding Relative to Reference (recombinant human CD16a [5]) | CD16a Binding Relative to Reference (recombinant human CD16a [6]) | CD16a Binding Relative to Reference (recombinant human CD16a [7]) | CD16a Binding Relative to Reference (recombinant human CD16a [8]) | CD16a Binding Relative to Reference (recombinant human CD16a [9]) | CD16a Binding Relative to Reference (recombinant human CD16a [10]) | CD16a Binding Relative to Reference (recombinant human CD16a [11]) | CD16a Binding Relative to Reference (recombinant human CD16a [12]) | CD16a Binding Relative to Reference (recombinant human CD16a [13]) | CD16a Binding Relative to Reference (recombinant human CD16a [14]) |
| --- | --- | --- | --- | --- | --- | --- | --- | --- | --- | --- | --- | --- | --- | --- |
| B1 | 40 % increase | 65% | 96% | 110% | 136% | 130 relative to Reference (no unit printed; percent as in Table 15) | 146 relative to Reference (no unit printed; percent as in Table 15) | 151 relative to Reference (no unit printed; percent as in Table 15) | 144 relative to Reference (no unit printed; percent as in Table 15) | – | – | – | – | – |
| B2 | 40 % increase | – | – | – | – | – | – | – | – | 69% | 137% | – | – | – |
| B3 | 40 % increase | – | – | – | – | – | – | – | – | 147% | 277% | 100% | 137% | – |
| B4 | 40 % increase | – | 100% | – | – | – | – | – | – | – | – | – | 128% | 146% |
